From the supplement of paper PMC7125110
± gives the standard error. Fewer inactive variants are shown than the library holds.

B1: glmS ribozyme (parent)
chain: AUAAAAGCGCCAGAACUACAGAAAUGUAGUUGACGAGGAGGAGGUUUAUCGAAUUUUCGGCGGAUGCCUCCAAA

Assays:
Conditions in all cases: with glucosamine-6-phosphate
[1] = variants of: B1; assay: self-cleavage kobs at 40 uM GlcN6P; higher = faster cleavage; RNA array
How it was run: (§1)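 Tracking of barcoded ribozyme variants used a hybridised Cy3 probe at 37 °C, after in situ transcription by E. coli RNA polymerase on sequenced MiSeq chips. The flowed solution held 40 μM to 10 mM glucosamine-6-phosphate in HEPES/KCl/Mg(OAc)2 buffer, and imaging ran over ~14 h. kobs was taken from exponential decay fits of normalised per-tile medians, and kcat and KM from weighted Michaelis–Menten fits.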

[2] = variants of: B1; assay: self-cleavage kobs at 10000 uM GlcN6P; higher = faster cleavage; RNA array
How it was run: as §1

[3] = variants of: B1; assay: self-cleavage kobs at 160 uM GlcN6P; higher = faster cleavage; RNA array
How it was run: as §1

[4] = variants of: B1; assay: self-cleavage kobs at 640 uM GlcN6P; higher = faster cleavage; RNA array
How it was run: as §1

[5] = variants of: B1; assay: self-cleavage kobs at 2500 uM GlcN6P; higher = faster cleavage; RNA array
How it was run: as §1

Variant | self-cleavage kobs at 40 uM GlcN6P [1] [s⁻¹] | self-cleavage kobs at 10000 uM GlcN6P [2] [s⁻¹] | self-cleavage kobs at 160 uM GlcN6P [3] [s⁻¹] | self-cleavage kobs at 640 uM GlcN6P [4] [s⁻¹] | self-cleavage kobs at 2500 uM GlcN6P [5] [s⁻¹]
C16U G43C | < 1e-05 | < 1e-05 | – | – | –
U46G U57A | < 1e-05 | 5.59e-05 ± 7.8e-06 | – | – | –
A33G C58A | < 1e-05 | < 1e-05 | – | – | –
C8G G38C C50A G66U | < 1e-05 | – | < 1e-05 | < 1e-05 | < 1e-05
A6U C10G A42G C50G C67A C70A | 0.000143 ± 4.1e-05 | 9.95e-05 ± 2.4e-05 | – | – | –
A53C C68A | < 1e-05 | – | < 1e-05 | < 1e-05 | –
C19A A53U | 0.000466 ± 8.9e-05 | 0.0123 ± 0.0028 | – | 0.00276 ± 0.0012 | –
G43U C50G U54G A64U C71U | 7.77e-05 ± 3e-05 | 0.00156 ± 0.00062 | – | – | –
A33U A36C G59C | < 1e-05 | < 1e-05 | – | – | –
A36U U65G | < 1e-05 | < 1e-05 | < 1e-05 | – | –
U46G G51U U57A C70G | 4.37e-05 ± 1.9e-05 | – | – | – | –
A48C G51U | < 1e-05 | < 1e-05 | – | < 1e-05 | –
C8G C16U | < 1e-05 | < 1e-05 | < 1e-05 | < 1e-05 | < 1e-05
G7U C58G C68G | 0.000149 ± 4.5e-05 | 0.000116 ± 2.5e-05 | 0.000633 ± 0.00028 | 0.00042 ± 0.00015 | 0.00158 ± 0.00066
C8U C11U C58A C67G | 0.00018 ± 3.1e-05 | 0.000209 ± 5.4e-05 | – | 0.00126 ± 0.00052 | 0.000112 ± 4.5e-05
C10U G62U | < 1e-05 | < 1e-05 | < 1e-05 | < 1e-05 | < 1e-05
G32U G44U | < 1e-05 | – | < 1e-05 | < 1e-05 | –
A6G C61U | < 1e-05 | < 1e-05 | < 1e-05 | < 1e-05 | < 1e-05
A48G U54A C61U | < 1e-05 | – | – | – | –
G37C U55C | < 1e-05 | 5.46e-05 ± 9.7e-06 | – | – | –
G9A U46G G62A | < 1e-05 | – | – | – | < 1e-05
A48C C50A | < 1e-05 | < 1e-05 | < 1e-05 | < 1e-05 | –
G9U C50U C70U | < 1e-05 | – | – | – | –

Variant | self-cleavage kobs at 40 uM GlcN6P [1] [s⁻¹] | self-cleavage kobs at 10000 uM GlcN6P [2] [s⁻¹] | self-cleavage kobs at 160 uM GlcN6P [3] [s⁻¹] | self-cleavage kobs at 640 uM GlcN6P [4] [s⁻¹] | self-cleavage kobs at 2500 uM GlcN6P [5] [s⁻¹]
G35U U46G | < 1e-05 | < 1e-05 | < 1e-05 | < 1e-05 | < 1e-05
C16U U56G | 0.000579 ± 9.9e-05 | 0.0241 ± 0.0047 | 0.000979 ± 0.0002 | 0.00302 ± 0.00067 | 0.00709 ± 0.0016
C34U G37C A53G | < 1e-05 | – | – | – | –
A6G A53C U56G | < 1e-05 | – | – | – | –
A12U A39U U54C | 0.000713 ± 0.00016 | 0.0366 ± 0.01 | – | – | –
A53G C61G | < 1e-05 | – | – | – | –
C11G A14U A39U | < 1e-05 | – | – | – | –
A6U G51A | < 1e-05 | < 1e-05 | – | – | –
C11A A48G | < 1e-05 | – | < 1e-05 | < 1e-05 | < 1e-05
C50G G66A C70A | 7.79e-05 ± 2.3e-05 | – | – | – | –
G60U C70A | < 1e-05 | < 1e-05 | < 1e-05 | < 1e-05 | –
A6U C8G A33U C34G U69G | 8.53e-05 ± 1.8e-05 | 6.82e-05 ± 1.7e-05 | – | 0.000181 ± 5.7e-05 | –
C8U G9C C10A G37U G40U G41A C50U | < 1e-05 | – | – | – | –
G32U G59U C71G | < 1e-05 | – | – | < 1e-05 | –
G43A G44U U55C | < 1e-05 | < 1e-05 | – | – | –
U45A U55C | 0.000654 ± 0.00021 | 0.024 ± 0.0085 | – | 0.00526 ± 0.0015 | 0.00714 ± 0.0029
A14G U30A | 0.000672 ± 0.00011 | 0.017 ± 0.0042 | 0.00098 ± 0.00024 | 0.00759 ± 0.0013 | 0.0384 ± 0.012
A6C A52C | < 1e-05 | < 1e-05 | < 1e-05 | < 1e-05 | < 1e-05
C11U A36G | < 1e-05 | – | < 1e-05 | < 1e-05 | < 1e-05
A39U G51U C67U | < 1e-05 | < 1e-05 | < 1e-05 | < 1e-05 | < 1e-05
C8U U65C | < 1e-05 | – | – | < 1e-05 | < 1e-05
C16A U30A A33G U55C | < 1e-05 | – | – | – | –
